Laboratory results published in patent publication US20050026839A1 (GENERAL HOSPITAL, published 2005).
Square brackets hold non-standard residues; d marks the D form. Ends that are not written are not given here. hArg = N=C(N)NCCCC[C@H](N)C(=O)O; Nle = CCCC[C@H](N)C(=O)O; Aib = CC(C)(N)C(=O)O

T1: wild-type human PTH/PTHrP receptor (hP1R-WT) (human, UniProt Q03431 27-593)
T1 sequence (looked up): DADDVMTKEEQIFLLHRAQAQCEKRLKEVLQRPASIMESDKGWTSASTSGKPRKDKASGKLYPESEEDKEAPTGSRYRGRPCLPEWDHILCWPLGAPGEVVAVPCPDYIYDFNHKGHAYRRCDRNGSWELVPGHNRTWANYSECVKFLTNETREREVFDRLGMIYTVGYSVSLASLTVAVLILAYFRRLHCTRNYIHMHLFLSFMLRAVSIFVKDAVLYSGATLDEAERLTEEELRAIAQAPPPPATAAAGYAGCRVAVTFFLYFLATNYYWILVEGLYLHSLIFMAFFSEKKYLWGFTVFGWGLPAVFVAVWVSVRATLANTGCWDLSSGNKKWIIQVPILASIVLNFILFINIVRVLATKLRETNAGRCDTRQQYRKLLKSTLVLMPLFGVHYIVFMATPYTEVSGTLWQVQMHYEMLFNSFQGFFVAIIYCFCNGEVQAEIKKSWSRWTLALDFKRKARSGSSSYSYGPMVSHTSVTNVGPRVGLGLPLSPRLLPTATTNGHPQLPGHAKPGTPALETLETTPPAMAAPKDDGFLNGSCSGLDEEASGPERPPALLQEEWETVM

B1: [Aib^9,M]PTH(1-14) (peptide)
peptide: AVAEIQLM[Aib]Q[hArg]AKW-NH2
modifications: N-terminus assumed
SMILES: CC[C@H](C)[C@H](NC(=O)[C@H](CCC(=O)O)NC(=O)[C@H](C)NC(=O)[C@@H](NC(=O)[C@H](C)N)C(C)C)C(=O)N[C@@H](CCC(N)=O)C(=O)N[C@@H](CC(C)C)C(=O)N[C@@H](CCSC)C(=O)NC(C)(C)C(=O)N[C@@H](CCC(N)=O)C(=O)N[C@@H](CCCCNC(=N)N)C(=O)N[C@@H](C)C(=O)N[C@@H](CCCCN)C(=O)N[C@@H](Cc1c[nH]c2ccccc12)C(N)=O
notes: Aib scan of [M]PTH(1-14); also called 630 Aib-9
B2: [Aib^8,M]PTH(1-14) (peptide)
peptide: AVAEIQL[Aib]HQ[hArg]AKW-NH2
modifications: N-terminus assumed
SMILES: CC[C@H](C)[C@H](NC(=O)[C@H](CCC(=O)O)NC(=O)[C@H](C)NC(=O)[C@@H](NC(=O)[C@H](C)N)C(C)C)C(=O)N[C@@H](CCC(N)=O)C(=O)N[C@@H](CC(C)C)C(=O)NC(C)(C)C(=O)N[C@@H](Cc1c[nH]cn1)C(=O)N[C@@H](CCC(N)=O)C(=O)N[C@@H](CCCCNC(=N)N)C(=O)N[C@@H](C)C(=O)N[C@@H](CCCCN)C(=O)N[C@@H](Cc1c[nH]c2ccccc12)C(N)=O
notes: Aib scan of [M]PTH(1-14); also called 629 Aib-8
B3: [Aib^1,3]PTH(1-9) (peptide)
peptide: [Aib]V[Aib]EIQLMH-NH2
modifications: N-terminus assumed
SMILES: CC[C@H](C)[C@H](NC(=O)[C@H](CCC(=O)O)NC(=O)C(C)(C)NC(=O)[C@@H](NC(=O)C(C)(C)N)C(C)C)C(=O)N[C@@H](CCC(N)=O)C(=O)N[C@@H](CC(C)C)C(=O)N[C@@H](CCSC)C(=O)N[C@@H](Cc1c[nH]cn1)C(N)=O
B4: [Aib^2,M]PTH(1-14) (peptide)
peptide: A[Aib]AEIQLMHQ[hArg]AKW-NH2
modifications: N-terminus assumed
SMILES: CC[C@H](C)[C@H](NC(=O)[C@H](CCC(=O)O)NC(=O)[C@H](C)NC(=O)C(C)(C)NC(=O)[C@H](C)N)C(=O)N[C@@H](CCC(N)=O)C(=O)N[C@@H](CC(C)C)C(=O)N[C@@H](CCSC)C(=O)N[C@@H](Cc1c[nH]cn1)C(=O)N[C@@H](CCC(N)=O)C(=O)N[C@@H](CCCCNC(=N)N)C(=O)N[C@@H](C)C(=O)N[C@@H](CCCCN)C(=O)N[C@@H](Cc1c[nH]c2ccccc12)C(N)=O
notes: Aib scan of [M]PTH(1-14); also called 623 Aib-2
B5: [Aib^4,M]PTH(1-14) (peptide)
peptide: AVA[Aib]IQLMHQ[hArg]AKW-NH2
modifications: N-terminus assumed
SMILES: CC[C@H](C)[C@H](NC(=O)C(C)(C)NC(=O)[C@H](C)NC(=O)[C@@H](NC(=O)[C@H](C)N)C(C)C)C(=O)N[C@@H](CCC(N)=O)C(=O)N[C@@H](CC(C)C)C(=O)N[C@@H](CCSC)C(=O)N[C@@H](Cc1c[nH]cn1)C(=O)N[C@@H](CCC(N)=O)C(=O)N[C@@H](CCCCNC(=N)N)C(=O)N[C@@H](C)C(=O)N[C@@H](CCCCN)C(=O)N[C@@H](Cc1c[nH]c2ccccc12)C(N)=O
notes: Aib scan of [M]PTH(1-14); also called 625 Aib-4
B6: [Ala^3,12,Nle^8,Gln^10,Har^11,Trp^14,Arg^19,Tyr^21]PTH(1-21)amide (peptide)
peptide: AVAEIQL[Nle]HQ[hArg]AKWLASVRRY-NH2
modifications: N-terminus assumed
SMILES: CCCC[C@H](NC(=O)[C@H](CC(C)C)NC(=O)[C@H](CCC(N)=O)NC(=O)[C@@H](NC(=O)[C@H](CCC(=O)O)NC(=O)[C@H](C)NC(=O)[C@@H](NC(=O)[C@H](C)N)C(C)C)[C@@H](C)CC)C(=O)N[C@@H](Cc1c[nH]cn1)C(=O)N[C@@H](CCC(N)=O)C(=O)N[C@@H](CCCCNC(=N)N)C(=O)N[C@@H](C)C(=O)N[C@@H](CCCCN)C(=O)N[C@@H](Cc1c[nH]c2ccccc12)C(=O)N[C@@H](CC(C)C)C(=O)N[C@@H](C)C(=O)N[C@@H](CO)C(=O)N[C@H](C(=O)N[C@@H](CCCNC(=N)N)C(=O)N[C@@H](CCCNC(=N)N)C(=O)N[C@@H](Cc1ccc(O)cc1)C(N)=O)C(C)C
notes: unlabeled peptide; also called [M]PTH(1-21); 608 [M]PTH(1-21)

Tests used:
[1] = biological target: T1, wild-type human PTH/PTHrP receptor …; assay: cell-based or functional assay
[2] = biological target: T1, wild-type human PTH/PTHrP receptor …; assay: competition binding, 125I-[M]PTH(1-21) tracer, HKRK-B28 cells
Protocol: (§1) Cells were then placed on ice, the binding medium was removed, and the monolayer was rinsed three times with 0.5 mL of cold binding buffer. The cells were subsequently lysed with 0.5 mL […] NaOH and counted for radioactivity. For each tracer and in each experiment, the non-specific binding was determined as the radioactivity that bound in the presence of the same unlabeled peptide at a concentration of 1 μM, and was ˜1% of total radioactivity added for each tracer. The maximum specific binding (B₀) was the total radioactivity bound in the absence of competing ligand, corrected for nonspecific binding, and for each tracer, ranged from 8% to 20% of the total radioactivity added. Nonlinear regression was used to calculate binding IC₅₀ values (see below). Scatchard transformations of homologous competition binding data derived from studies with 26 fmol of ¹²⁵I-[Aib^{1,3},M]PTH(1-21) were employed for estimations of apparent equilibrium dissociation constant (kDapps) and total number of ligand binding sites (Bₘₐₓ), assuming a single class of binding sites and equal affinities of the iodinated and non iodinated ligand.
Relative to the apparent binding affinity of [M]PTH(1-14), most of the Aib substitutions reduced affinity, in accordance with the corresponding effects on cAMP-signaling potency (Table 1).

[3] = biological target: T1, wild-type human PTH/PTHrP receptor …; assay: competition binding, 125I-[M]PTH(1-21) tracer, HKRK-B28 cells, 4 h at 4 C
Protocol: as §1, with “Competition Binding. Binding reactions were performed with HKRK-B28 cells or in COS-7 cells in 24-well plates. The cells were rinsed with 0.5 mL of binding buffer, and then treated successively with 100 μL binding buffer, 100 μL of binding buffer containing various amounts of unlabeled competitor ligand, and 100 μL of binding buffer containing ca. 100,000 cpm of ¹²⁵I-[M]PTH(1-21) or ¹²⁵I-[Aib^{1,3},M]PTH(1-21)} (ca. 26 fmol; final volume=300 μL). Incubations were 4 to 6 h at 4° C., at which time near equilibrium conditions were attained. Cells” for “Cells”
Peptides PTH(1-34) ([Nle^{8,21}, Tyr³⁴]PTH(1-34)amide), [M]PTH(1-14) (M = Ala^{3,12}, Gln¹⁰, Har¹¹, Trp¹⁴), and [M]PTH(1-14 analogs, or C-terminally truncated derivatives thereof, containing α-aminoisobutyric acid (Aib) substitutions at the indicated positions were functionally evaluated in HKRK-B28 cells. “M” in [Aib^{1,3}, M]PTH(1-21) = Nle⁸, Gln¹⁰, Har¹¹, Ala¹², Trp¹⁴, Arg¹⁹ and Tyr²¹. The basal cAMP values (not subtracted) were 4.0 ± 0.1 pmole/well (n = 10). Peptides were based on the rat PTH sequence and were carboxy-amidated. Competition binding analyses were performed with ¹²⁵I-[M]PTH(1-21 )amide (Ala^{1,3}) as tracer for 4 h at 4° C. Data are means (±S.E.M.) Of the number of experiments indiated (n).

Row | Binder | cAMP EC50 [1] [µM] | cAMP EMax(obs.) [1] [pmole/well] | fold reduction in affinity relative to [M]PTH(1-14) [2] [fold] | IC50 [3] [µM]
1 | B1 | 710 | 51 | > 10 | 
2 | B2 | 1500 | 34 | > 10 | 
3 | B3 | > 10 | 10 |  | 
4 | B4 | 47 | 168 |  | 50
5 | B5 | 17 | 221 | > 10 | 148
6 | B6 |  |  |  | 0.053
